Publication PMC11839890 (European Journal of Nuclear Medicine and Molecular Imaging, 2024)
Like-named read-outs stand apart in the source and are kept apart here. Non-standard residues stand in square brackets, D forms with d. *: point of attachment. DOTA = O=C(O)CN1CCN(CC(=O)O)CCN(CC(=O)*)CCN(CC(=O)O)CC1

Key:
[1] = tested on: A431-CCK2R cells; conditions: cited from earlier work
[2] = tested on: A431-CCK2R xenografts; conditions: in vivo; cited from earlier work
[3] = target: T1, human CCK2R (Homo sapiens, UniProt P32239); test: Saturation binding on A431-CCK2R cells; conditions: 4°C, read-out: dissociation constant (Kd)
T1 construct: expressed in transfected cells; host or cells: A431 human epidermoid carcinoma cells, stably transfected (plasmid pCR3.1), provided by Dr. Luigi Aloj
T1 sequence (P32239 1-447): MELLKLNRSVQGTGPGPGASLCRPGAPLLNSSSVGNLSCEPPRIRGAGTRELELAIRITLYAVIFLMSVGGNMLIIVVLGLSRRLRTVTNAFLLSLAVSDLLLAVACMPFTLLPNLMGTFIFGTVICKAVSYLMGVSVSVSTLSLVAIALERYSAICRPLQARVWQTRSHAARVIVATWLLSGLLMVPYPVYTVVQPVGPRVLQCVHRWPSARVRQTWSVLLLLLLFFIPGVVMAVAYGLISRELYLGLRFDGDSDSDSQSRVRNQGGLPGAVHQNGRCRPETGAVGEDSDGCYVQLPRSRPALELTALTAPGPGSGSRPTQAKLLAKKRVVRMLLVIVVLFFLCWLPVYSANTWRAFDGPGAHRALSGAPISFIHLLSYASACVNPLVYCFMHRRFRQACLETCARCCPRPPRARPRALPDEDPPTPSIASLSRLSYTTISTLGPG
Description: The saturation binding assay was performed on A431-CCK2R cells plated 2 days prior to the assay at a density of 1×10^6 cells per well in 6-well plates. […] Before recovering the cell-associated radioactivity from the wells by using 1 M NaOH (two times), cells were washed twice with ice-cold phosphate-buffered saline (PBS). The radioactivity was then counted using a gamma counter (2480 Wizard2 3”, PerkinElmer Life Sciences and Analytical Instruments, formerly Wallac Oy, Turku, Finland) and non-specific binding was subtracted. For normalization to the number of cells, cells from three different wells were trypsinized and counted by Beckman Coulter Vi-CELL AS cell viability analyser (Beckman Coulter, Fullerton, CA, USA). Three independent assays were performed in triplicate. Binding curves were analysed using GraphPad Prism version 10.1.2 for Windows (GraphPad Software, Boston, Massachusetts USA).

[4] = in vivo; conditions: mouse; for tissue uptake at 4 h: BALB/c nude (athymic), total radioactivity, uptake in A431-CCK2R xenografts
Description: Biodistribution studies were performed in female athymic BALB/c nude mice (Charles River Laboratories, Sulzfeld, Germany) with A431-CCK2R xenografts induced and animals treated as described previously. The study was approved by the Austrian Ministry of Science (2022–0.351.553). […] Statistical analysis was performed on the data sets using the unpaired two-tailed t-test with a significance level of 0.05.

[5] = Biodistribution up to 7 days p.i. / preclinical pharmacokinetics in A431-CCK2R xenografted BALB/c nude mice; type: in vivo; conditions: female, mouse, iv, total radioactivity
Description: (§1) The study was approved by the Dutch animal ethics committee (CCD) of the Radboud University and the Nijmegen Medical Centre animal ethics committee (RUDEC) (2020–0007–020). Mice were inoculated with A431-CCK2R cells (2 × 10^6 in 200 μL DMEM medium) at an age of 8–10 weeks. […] Samples were collected, weighted and measured in a gamma counter together with a 1% standard of the injected dose. Results were expressed as percentage of injected activity per gram of tissue (%IA/g), and tumour-to-organ activity ratios were calculated for selected organs. The biodistribution data were used to calculate the kinetics in mouse organs and A431-CCK2R xenografts. A detailed description of the dosimetry calculations and extrapolation from mice to humans can be found in the Supplementary Materials. A one-compartment distribution model was used to characterize the time-activity curves, which were fitted with a single-exponential function implementing Graphpad Prism software. […] Animal dosimetry was performed using the RADAR mouse phantom. The mouse phantom organ weights were used to translate the time-integrated activity concentration coefficients [TIAC] into the regular TIAC. The absorbed dose per given activity was calculated using the MIRD equation (medical internal radiation dose) and the S values obtained from the 25 g RADAR mouse phantom.

[6] = tested on: A431-CCK2R xenografts; test: as above; type: in vivo; conditions: mouse, in vivo
Description: as §1

[7] = Extended single-dose toxicity study in Wistar rats; conditions: male, rat, in vivo, intravenous, for humans
Description: The first clinical dose for the therapeutic application was established based on a previous extended singe-dose toxicity study performed on the chemical precursor DOTA-MGS5 in a GLP-compliant laboratory (BSL BIOSERVICE Scientific Laboratories Munich GmbH, Planegg/Munich, Germany). According to applicable guidelines a targeted programme of non-clinical testing was followed. The safety was assessed in a single species and no repeated dose study was performed, as complete clearance between administrations is expected. The study was conducted in male Wister rats and included three dose groups and one control group. The histopathological examination was focused on the main target organs.

[8] = design: method as in PMID 34208516; conditions: established for humans from the rat study; cited from earlier work
[9] = tested on: tumour; conditions: in vivo; cited from earlier work
[10] = BALB/c nude (athymic), in vivo, 20 pmol of peptide, Uptake, A431-CCK2R tumour
[11] = BALB/c nude (athymic), in vivo, 20 pmol of peptide, Uptake, blood
[12] = BALB/c nude (athymic), in vivo, 20 pmol of peptide, Uptake, heart
[13] = BALB/c nude (athymic), in vivo, 20 pmol of peptide, Uptake, kidney
[14] = BALB/c nude (athymic), in vivo, 20 pmol of peptide, Uptake, liver
[15] = BALB/c nude (athymic), in vivo, 20 pmol of peptide, Uptake, lung
[16] = BALB/c nude (athymic), in vivo, 20 pmol of peptide, Uptake, pancreas
[17] = BALB/c nude (athymic), in vivo, 20 pmol of peptide, Uptake, stomach
[18] = athymic BALB/c nude, in vivo, Uptake, femur
[19] = athymic BALB/c nude, in vivo, Uptake, heart
[20] = athymic BALB/c nude, in vivo, Uptake, intestine
[21] = athymic BALB/c nude, in vivo, Uptake, muscle
[22] = athymic BALB/c nude, in vivo, Uptake, spleen

For “[^177Lu]Lu-DOTA-PP-F11N: 177Lu-labelled DOTA-(DGlu)6-Ala-Tyr-Gly-Trp-Nle-Asp-Phe-NH2 (AYGW; 177Lu-DOTA-(DGlu)6, Nle-Asp-Phe-NH2; printed: Ala-Tyr-Gly-Trp-)”, the Bmax ([1]; A431-CCK2R cells, nM printed only with the first value of the sentence) is given as 0.54 ± 0.10 nM, the Kd ([1]; same cell line (A431-CCK2R), nM printed only with the PP-F11N value) is given as 50 ± 7.3 nM and the tumour uptake [2] is given as ~ 7 %ID/g.

With CCCC[C@@H](C(=O)N[C@@H](CC(=O)O)C(=O)N[C@@H](Cc1cccc2ccccc12)C(N)=O)N(C)C(=O)[C@H](Cc1c[nH]c2ccccc12)NC(=O)CNC(=O)[C@H](Cc1ccc(O)cc1)NC(=O)[C@H](C)NC(=O)[C@@H](CCC(=O)O)NC(=O)CN1CCN(CC(=O)O)CCN(CC(=O)O)CCN(CC(=O)O)CC1 [[^177Lu]Lu-DOTA-MGS5, metal not drawn] the Kd [3] was 5.25 ± 1.61 nM, the tissue uptake at 4 h [4] was 22.9 ± 4.7 %ID/g and the tissue uptake at 4 h ([4]; female, iv, 20 pmol peptide) was 31.9 ± 12.8 %ID/g. For the same compound, the tissue uptake ([4]; female, athymic BALB/c nude, tumour uptake) was about 23 %ID/g, the tissue uptake at 1 h ([5]; BALB/c nude (athymic), A431-CCK2R tumour xenograft, 20 pmol of peptide, A431-CCK2R xenograft, 1h p.i., i.v., n = 5, read-out: Uptake, A431-CCK2R tumour) was 68.1 ± 10 %ID/g and the tissue uptake at 24 h [5, 10] was 28.9 ± 7.2 %ID/g. The tissue uptake at 72 h [5, 10] was 12.6 ± 0.3 %ID/g, the tissue uptake at 168 h [5, 10] was 2 ± 0.5 %ID/g and the tissue uptake at 1 h [5, 11] was 1.9 ± 0.4 %ID/g. It also gave a tissue uptake at 24 h [5, 11] of 0.01 ± 0.002 %ID/g, a tissue uptake at 72 h [5, 11] of 0.004 ± 0.002 %ID/g and a tissue uptake at 168 h [5, 11] of 0.01 ± 0.01 %ID/g. It also gave a tissue uptake at 1 h [5, 12] of 0.8 ± 0.2 %ID/g, a tissue uptake at 24 h [5, 12] of 0.05 ± 0.01 %ID/g and a tissue uptake at 1 h [5, 13] of 3.7 ± 0.4 %ID/g. It also gave a tissue uptake at 24 h [5, 13] of 2 ± 0.2 %ID/g, a tissue uptake at 72 h [5, 13] of 1 ± 0.1 %ID/g and a tissue uptake at 168 h [5, 13] of 0.4 ± 0.1 %ID/g. The tissue uptake at 1 h [5, 14] was 1.3 ± 0.2 %ID/g, the tissue uptake at 24 h [5, 14] was 0.5 ± 0.1 %ID/g and the tissue uptake at 72 h [5, 14] was 0.2 ± 0.1 %ID/g. For the same compound, the tissue uptake at 168 h [5, 14] was 0.08 ± 0.01 %ID/g, the tissue uptake at 1 h [5, 15] was 4.6 ± 1.9 %ID/g and the tissue uptake at 24 h [5, 15] was 0.2 ± 0.1 %ID/g. The tissue uptake at 72 h [5, 15] was 0.1 ± 0.04 %ID/g, the tissue uptake at 168 h [5, 15] was 0.04 ± 0.01 %ID/g and the tissue uptake at 1 h [5, 16] was 1.7 ± 0.5 %ID/g. It also gave a tissue uptake at 24 h [5, 16] of 0.9 ± 0.2 %ID/g, a tissue uptake at 72 h [5, 16] of 0.7 ± 0.2 %ID/g and a tissue uptake at 168 h [5, 16] of 0.6 ± 0.1 %ID/g. The tissue uptake at 1 h [5, 17] was 8.1 ± 0.9 %ID/g, the tissue uptake at 24 h [5, 17] was 4.9 ± 0.4 %ID/g and the tissue uptake at 168 h [5, 17] was 1.3 ± 0.1 %ID/g. The tissue uptake at 1 h [5, 18] was 0.3 ± 0.1 %ID/g, the tissue uptake at 24 h [5, 18] was 0.052 ± 0.008 %ID/g and the tissue uptake at 72 h [5, 18] was 0.032 ± 0.007 %ID/g. For the same compound, the tissue uptake at 168 h [5, 18] was 0.06 ± 0.02 %ID/g, the tissue uptake at 72 h [5, 19] was 0.026 ± 0.005 %ID/g and the tissue uptake at 168 h [5, 19] was 0.018 ± 0.004 %ID/g. For the same compound, the tissue uptake at 1 h [5, 20] was 1.1 ± 0.3 %ID/g, the tissue uptake at 24 h [5, 20] was 0.17 ± 0.02 %ID/g and the tissue uptake at 72 h [5, 20] was 0.1 ± 0.01 %ID/g. It also gave a tissue uptake at 168 h [5, 20] of 0.04 ± 0.01 %ID/g, a tissue uptake at 1 h [5, 21] of 0.3 ± 0.2 %ID/g and a tissue uptake at 24 h [5, 21] of 0.04 ± 0.01 %ID/g. For the same compound, the tissue uptake at 72 h [5, 21] was 0.01 ± 0.003 %ID/g, the tissue uptake at 168 h [5, 21] was 0.018 ± 0.005 %ID/g and the tissue uptake at 1 h [5, 22] was 0.6 ± 0.1 %ID/g. For the same compound, the tissue uptake at 168 h [5, 22] was 0.09 ± 0.01 %ID/g, the “Uptake, blood” value ([6]; female, BALB/c nude (athymic), iv, 20 pmol of peptide, 24 h) was 0.013±0.002 %IA/g and the “half-life of blood clearance” value ([6]; female, athymic BALB/c nude) was 2.8 h. For the same compound, the “biological half-life of clearance from the tumour” value [6] was 18.2 h.

For CCCC[C@@H](C(=O)N[C@@H](CC(=O)O)C(=O)N[C@@H](Cc1cccc2ccccc12)C(N)=O)N(C)C(=O)[C@H](Cc1c[nH]c2ccccc12)NC(=O)CNC(=O)[C@H](Cc1ccc(O)cc1)NC(=O)[C@H](C)NC(=O)[C@@H](CCC(=O)O)NC(=O)CN1CCN(CC(=O)O)CCN(CC(=O)O)CCN(CC(=O)O)CC1 [DOTA-MGS5, DOTA-DGlu-Ala-Tyr-Gly-Trp-(N-Me)Nle-Asp-1-Nal-NH2], the 1/100 of NOAEL [7] is given as 4 µg/kg and the “NOAEL (no observed adverse effect level)” value [8] is given as 0.4 mg/kg body weight.

In the case of “[^111In]In-DOTA-MG11: 111In-labelled DOTA-MG11 (DOTA-DGlu-Ala-Tyr-Gly-Trp-Met-Asp-Phe-NH2) ({DOTA}-[dE]AYGWMDF-NH2; also: 111In complexed by DOTA)”, the tumour uptake [9] is given as 2–3 % ID/g.
